Experimental data as given in paper PMC314469, “Protein Interaction Networks by Proteome Peptide Scanning” (PLoS Biology, 2004).

T1: Boi1 SH3 (BOI1_YEAST), P38041
T1 chain: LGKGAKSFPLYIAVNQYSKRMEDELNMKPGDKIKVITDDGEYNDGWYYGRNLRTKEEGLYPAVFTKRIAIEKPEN

T2: Boi2 SH3 (BOI2_YEAST), P39969
T2 chain: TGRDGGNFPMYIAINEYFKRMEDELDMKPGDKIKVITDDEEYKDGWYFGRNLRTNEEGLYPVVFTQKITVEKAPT

T3: Rvs167 SH3 (RV167_YEAST), P39743
T3 chain: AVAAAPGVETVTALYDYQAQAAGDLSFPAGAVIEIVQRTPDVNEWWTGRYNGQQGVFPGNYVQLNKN

T4: Yfr024 SH3 (LSB3_YEAST), P43603
T4 chain: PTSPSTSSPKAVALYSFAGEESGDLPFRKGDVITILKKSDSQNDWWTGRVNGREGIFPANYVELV

T5: Yhr016c SH3 (YSC84_YEAST), P32793
T5 chain: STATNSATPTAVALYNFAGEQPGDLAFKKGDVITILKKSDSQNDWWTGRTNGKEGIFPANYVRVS


Columns and labels:
Assay in all cases: SPOT array
[1] = biological target: T1, Boi1 SH3 (BOI1_YEAST), P38041
[2] = biological target: T2, Boi2 SH3 (BOI2_YEAST), P39969
[3] = biological target: T3, Rvs167 SH3 (RV167_YEAST), P39743
[4] = biological target: T4, Yfr024 SH3 (LSB3_YEAST), P43603
[5] = biological target: T5, Yhr016c SH3 (YSC84_YEAST), P32793

Row | Binder | normalised SPOT signal, Boehringer light units (BLU); mean over the file's lines of this peptide [1] | normalised SPOT signal, Boehringer light units (BLU); mean over the file's lines of this peptide [2] | normalised SPOT signal, Boehringer light units (BLU); mean over the file's lines of this peptide [3] | normalised SPOT signal, Boehringer light units (BLU); mean over the file's lines of this peptide [4] | normalised SPOT signal, Boehringer light units (BLU); mean over the file's lines of this peptide [5]
1 | ASMPRVPLKIVLKD [YIL078W 68-81] | 101 | 282 | 581 | 6880 | 690
2 | ASYPLTPRRYVPED [YLR244C 90-103] | 2830 | 23400 | 1380 | 6950 | 4120
3 | ATRPSSPMRHKSIS [YAR019C 585-598] | 168 | 302 | 1180 | 6110 | 1730
4 | ATTPAIPTKSDEAE [YGR162W 364-377] | 70.8 | 42.2 | 86.1 | 166 | 0
5 | ATVPSAPYRKQIIS [YAR002W 11-24] | 30.5 | 53.7 | 145 | 1890 | 718
6 | AVDPENPKKLASKF [YCR023C 384-397] | 74.5 | 53.1 | 5.3 | 0 | 42.7
7 | AVLPIEPMKIKGTT [YNL140C 149-162] | 98.3 | 37 | 39 | 605 | 191
8 | SDFPYDPFKVMRQN [YKR061W 225-238] | 41.4 | 40.1 | 11.8 | 33.2 | 119
9 | SDFPYDPFRVMRLK [YJL139C 225-238] | 330 | 33.6 | 42 | 231 | 245
10 | SGFPLLPSKRGVTA [YBL095W 165-178] | 100 | 22 | 354 | 4190 | 314
11 | SIIPPLPDKKVFQY [YJL036W 96-109] | 40.2 | 49 | 22.3 | 6960 | 174
12 | SILPAFPSKSSNEQ [YDR403W 216-229] | 131 | 25.1 | 68.1 | 441 | 108
13 | SILPSTPTRPLSQS [YPL202C 314-327] | 44.6 | 19.1 | 196 | 20300 | 20300
14 | SLGPLDPLKEISDL [YLR330W 177-190] | 103 | 42.4 | 8.3 | 13.6 | 206
15 | SNEPHLPPKWVQRS [YLR318W 152-165] | 120 | 9.7 | 4.1 | 2740 | 84
16 | SNPPTDPGRIPMSE [YKR054C 2535-2548] | 23.4 | 56.4 | 40.5 | 22.9 | 259
17 | SQRPGSPGRYKLVR [YER025W 174-187] | 123 | 51.1 | 94 | 634 | 202
18 | SREPEVPQRLLTLI [YCR095C 250-263] | 60 | 67.2 | 42.9 | 1140 | 176
19 | DDAPATPPRPLKRK [YJL194W 18-31] | 242 | 101 | 4430 | 26500 | 13400
20 | DDTPSIPSKISSKS [YBL034C 1313-1326] | 63.8 | 115 | 247 | 124 | 188
21 | DELPSPPLRMVHID [YER152C 237-250] | 128 | 28.3 | 124 | 7450 | 6740
22 | DEPPSFPKRWGWLK [YIL067C 85-98] | 77.3 | 112 | 62.6 | 9640 | 2420
